The values that follow come from patent publication US20180016327A1 (Chugai, published 2018).

Numbering of substitutions follows the chain as printed.

The labels stand for the following.
B1: CFP0018 (antibody, V domains shown)
VH: QVQLVQSGAEVKKPGSSVKVSCKASGGTFSSYAISWVRQAPGQGLEWMGGIIPIFGTANYAQKFQGRVTITADESTSTAYMELSSLRSEDTAVYYCARQLYGYYELDIWGQGTLVTVSS
VL: DIQMTQSPSSLSASVGDRVTITCRASQSISDDLAWYQQKPGKAPKLLIYEASSLQSGVPSRFSGSGSGTDFTLTISSLQPEDFATYYCQQYNSYPLTFGQGTKVEIK
notes: IgG format
B2: CFP0017 17L 92N (antibody, V domains shown)
VH: B1 VH with Q99G, L100G, Y101W, G102W, Y103G, Y104G, E105A, I108Y
VL: B1 VL with S30E, E50H, Y91S
B3: CFP0017 17L 92S (antibody, V domains shown)
VH: B1 VH with Q99G, L100G, Y101W, G102W, Y103G, Y104G, E105A, I108Y
VL: B1 VL with S30E, E50H, Y91S, N92S
B4: CFP0018 18L 30H (antibody, V domains shown)
VH: B1 VH
VL: B1 VL with S30H
B5: CFP0018 18L 30N (antibody, V domains shown)
VH: B1 VH
VL: B1 VL with S30N
B6: CFP0018 18L 30Y (antibody, V domains shown)
VH: B1 VH
VL: B1 VL with S30Y
B7: CFP0018 18L 92D (antibody, V domains shown)
VH: B1 VH
VL: B1 VL with N92D
B8: CFP0017 17L 91H (antibody, V domains shown)
VH: B1 VH with Q99G, L100G, Y101W, G102W, Y103G, Y104G, E105A, I108Y
VL: B1 VL with S30E, E50H, Y91H, N92D
B9: CFP0018 18L 30P (antibody, V domains shown)
VH: B1 VH
VL: B1 VL with S30P
B10: CFP0018 18L 32N (antibody, V domains shown)
VH: B1 VH
VL: B1 VL with D32N
B11: CFP0018 18L 30Q (antibody, V domains shown)
VH: B1 VH
VL: B1 VL with S30Q
B12: CFP0017 17L 50E (antibody, V domains shown)
VH: B1 VH with Q99G, L100G, Y101W, G102W, Y103G, Y104G, E105A, I108Y
VL: B1 VL with S30E, Y91S, N92D
B13: CFP0018 18L 50D (antibody, V domains shown)
VH: B1 VH
VL: B1 VL with E50D
B14: CFP0017 17L 91R (antibody, V domains shown)
VH: B1 VH with Q99G, L100G, Y101W, G102W, Y103G, Y104G, E105A, I108Y
VL: B1 VL with S30E, E50H, Y91R, N92D
B15: CFP0018 18L 30T (antibody, V domains shown)
VH: B1 VH
VL: B1 VL with S30T
B16: CFP0017 17L 50A (antibody, V domains shown)
VH: B1 VH with Q99G, L100G, Y101W, G102W, Y103G, Y104G, E105A, I108Y
VL: B1 VL with S30E, E50A, Y91S, N92D
B17: CFP0017 17L 30S (antibody, V domains shown)
VH: B1 VH with Q99G, L100G, Y101W, G102W, Y103G, Y104G, E105A, I108Y
VL: B1 VL with E50H, Y91S, N92D
B18: CFP0018 18L 30E (antibody, V domains shown)
VH: B1 VH
VL: B1 VL with S30E
B19: CFP0018 18L 30F (antibody, V domains shown)
VH: B1 VH
VL: B1 VL with S30F
B20: CFP0017 (antibody, V domains shown)
VH: B1 VH with Q99G, L100G, Y101W, G102W, Y103G, Y104G, E105A, I108Y
VL: B1 VL with S30E, E50H, Y91S, N92D
notes: IgG format
B21: CFP0018 18L 53H (antibody, V domains shown)
VH: B1 VH
VL: B1 VL with S53H
B22: CFP0017 17L 30H (antibody, V domains shown)
VH: B1 VH with Q99G, L100G, Y101W, G102W, Y103G, Y104G, E105A, I108Y
VL: B1 VL with S30H, E50H, Y91S, N92D
B23: CFP0018 18L 30D (antibody, V domains shown)
VH: B1 VH
VL: B1 VL with S30D
B24: CFP0018 18L 31N (antibody, V domains shown)
VH: B1 VH
VL: B1 VL with D31N
B25: CFP0018 18L 53T (antibody, V domains shown)
VH: B1 VH
VL: B1 VL with S53T
B26: CFP0017 17L 91Y (antibody, V domains shown)
VH: B1 VH with Q99G, L100G, Y101W, G102W, Y103G, Y104G, E105A, I108Y
VL: B1 VL with S30E, E50H, N92D
B27: CFP0018 18L 53N (antibody, V domains shown)
VH: B1 VH
VL: B1 VL with S53N
B28: CFP0018 18L 32Q (antibody, V domains shown)
VH: B1 VH
VL: B1 VL with D32Q
B29: CFP0017 17L 30A (antibody, V domains shown)
VH: B1 VH with Q99G, L100G, Y101W, G102W, Y103G, Y104G, E105A, I108Y
VL: B1 VL with S30A, E50H, Y91S, N92D
B30: CFP0018 18L 30A (antibody, V domains shown)
VH: B1 VH
VL: B1 VL with S30A
B31: CFP0017 17L 30D (antibody, V domains shown)
VH: B1 VH with Q99G, L100G, Y101W, G102W, Y103G, Y104G, E105A, I108Y
VL: B1 VL with S30D, E50H, Y91S, N92D

The target of the assay is T1, human C5 (human, UniProt P01031 19-673; P01031 678-1676, Beta and alpha chains are disulfide-linked and the protein is glycosylated.).
T1 construct: Either in-house recombinant C5 or plasma derived C5 (CALBIOCHEM) was used; also called recombinant human C5; plasma derived human C5
Nature of the assay: Biacore, captured antibody, pH 7.4, 37 C.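 Note: biacore binding response of anti-C5 antibody light chain variants captured on chip with human C5 injected, ACES running buffer containing 1.2 mM CaCl₂, parent light chain antibody set to 100.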
On to B1, for which the “% binding (parent = 100)” value worked out at 100%.
As for B2, the figure is 36.4%.
As for B3, the figure is 79%; as for B4, 87.2%.
Under B5 stands 201%; under B6, 82.4%; under B7, 31.7%.
On to B8, for which the “% binding (parent = 100)” value was determined as 21.8%.
Turning to B9, the “% binding (parent = 100)” value worked out at 111%.
Under B10 stands 527%.
Under B11 stands 130%; under B12, 1%; under B13, 22.2%.
Under B14 stands -4%; under B15, 90.7%; under B16, 3.3%.
For B17, the “% binding (parent = 100)” value amounted to 79.1%.
Under B18 stands 20.8%; under B19, 85.2%.
Under B20 stands 100%; under B21, 94.4%.
Take B22: the “% binding (parent = 100)” value came out at 52.1%.
With B23, the “% binding (parent = 100)” value came out at 17%.
As for B24, the figure is 130%; as for B25, 44.5%.
In the case of B26, the “% binding (parent = 100)” value came out at 0.3%.
As for B27, the figure is 91.2%; as for B28, 21.9%.
As for B29, the figure is 79.9%; as for B30, 21.2%.
As for B31, the figure is 89.4%.
